# Results taken from paper PMC7092707 (Biotechniques, 2019).
# B1: dopamine receptor type 2 (receptor, UniProt P14416 1-443, looked up)
# chain: MDPLNLSWYDDDLERQNWSRPFNGSDGKADRPHYNYYATLLTLLIAVIVFGNVLVCMAVSREKALQTTTNYLIVSLAVADLLVATLVMPWVVYLEVVGEWKFSRIHCDIFVTLDVMMCTASILNLCAISIDRYTAVAMPMLYNTRYSSKRRVTVMISIVWVLSFTISCPLLFGLNNADQNECIIANPAFVVYSSIVSFYVPFIVTLLVYIKIYIVLRRRRKRVNTKRSSRAFRAHLRAPLKGNCTHPEDMKLCTVIMKSNGSFPVNRRRVEAARRAQELEMEMLSSTSPPERTRYSPIPPSHHQLTLPDPSHHGLHSTPDSPAKPEKNGHAKDHPKIAKIFEIQTMPNGKTRTSLKTMSRRKLSQQKEKKATQMLAIVLGVFIICWLPFFITHILNIHCDCNIPPVLYSAFTWLGYVNSAVNPIIYTTFNIEFRKAFLKILHC
# Molecular target: adenosine A2A receptor (human (endogenous in postmortem ventral …, UniProt P29274 1-412))
# Assay: proximity ligation
# Chain of adenosine A2A receptor (human (P29274 whole entry): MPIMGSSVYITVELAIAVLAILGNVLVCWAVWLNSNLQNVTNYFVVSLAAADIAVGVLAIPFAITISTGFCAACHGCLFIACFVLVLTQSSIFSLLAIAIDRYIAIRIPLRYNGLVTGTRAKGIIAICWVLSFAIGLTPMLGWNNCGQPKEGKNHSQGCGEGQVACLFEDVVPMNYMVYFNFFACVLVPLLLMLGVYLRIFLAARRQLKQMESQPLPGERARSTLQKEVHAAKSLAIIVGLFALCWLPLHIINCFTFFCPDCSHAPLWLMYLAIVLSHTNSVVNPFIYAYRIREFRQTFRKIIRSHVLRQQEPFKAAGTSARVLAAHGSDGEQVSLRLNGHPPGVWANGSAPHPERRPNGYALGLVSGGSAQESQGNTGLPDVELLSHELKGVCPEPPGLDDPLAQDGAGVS
binder,measurement,value
B1,fraction of D2R-A2AR complex relative to total A2AR (PLA puncta),12.3 ± 1.8%
same,fraction of D2R-A2AR complex relative to total D2R (PLA puncta),13.4 ± 5.3%
